Assay results: the supplement of paper PMC7877785
± gives the uncertainty stated by the source.

Assay: self-splicing fitness, log relative to wild type (ln ratio); higher = more splicing; Tetrahymena group I intron in knt gene, E. coli kanamycin selection, DiMSum; sequences stand for … in CUCUCU…GGAGGGAAAAGUUAUCAGGCAUGCACCUGGUAGCUAGUCUUUAAACCAAUAGAUUGCAUCGGUUUAAAAGGCAAGACCGUCAAAUUGCGGGAAAGGGGUCAACAGCCGUUCAGUACCAAGUCUCAGGGGAAACUUUGAGAUGGCCUUGCAAAGGGUAUGGUAAUAAGCUGACGGACAUGGUCCUAACCACGCAGCCAAGUCCUAAGUCAACAGAUCUUCUGUUGAUAUGGAUGCAGUUCACAGACUAAAUGUCGGUCGGGGAAGAUGUAUUCUUCUCAUAAGAUAUAGUCGGACCUCUCCUUAAUGGGAGCUAGCGGAUGAAGUGAUGCAACACUGGAGCCGCUGGGAACUAAUUUGUAUGCGAAAGUAUAUUGAUUAGUUUUGGAGUACUCGUGGUCG
How it was run: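 A randomised library covering all eight P1ex-region intron nucleotides was built with the intron in the knt kanamycin-resistance gene on pET-22b(+) and held in E. coli BL21(DE3). Cells were grown overnight at 37°C or 30°C on LB agar, with or without 25 μg/mL kanamycin, plus 100 μg/mL carbenicillin, 50 μM IPTG and 0.2% rhamnose, and pooled colonies were amplicon-sequenced on an Illumina HiSeq 2500. DiMSum fitness is the error-weighted combination of wild-type-normalised replicate fold changes, kanamycin versus none.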

Sequence	self-splicing fitness (ln) (30 °C)	self-splicing fitness (ln) (37 °C)
UCAGAGCAAUAUUACGAGCU	-2.68 ± 0.38	-1.58 ± 0.29
GGUCAGCAAUAUUACGCCCA	-1.55 ± 0.21	-0.611 ± 0.28
UUAUAGCAAUAUUACGCAGU		-1.61 ± 0.33
UCGCAGCAAUAUUACGUCAC	-3.57 ± 0.15	-2.85 ± 0.16
ACUGAGCAAUAUUACGAGGU	-2.91 ± 0.14	-1.99 ± 0.23
UUGAAGCAAUAUUACGUGCA	-0.222 ± 0.068	0.447 ± 0.1
UGAGAGCAAUAUUACGAAAC		-1.1 ± 0.37
GUCCAGCAAUAUUACGUUGU	-0.537 ± 0.051	0.244 ± 0.066
GGUCAGCAAUAUUACGUGAC	-2.08 ± 0.17	-2 ± 0.24
AGGAAGCAAUAUUACGCGAC	-2.62 ± 0.45	-0.793 ± 0.31
CGACAGCAAUAUUACGCUCG	-3.34 ± 0.37	-2.18 ± 0.24
GAUGAGCAAUAUUACGUACC	-0.53 ± 0.35	-1.77 ± 0.44
UCAUAGCAAUAUUACGCUCA	-1.82 ± 0.15	-0.493 ± 0.15
UAGUAGCAAUAUUACGGUCG	-0.566 ± 0.097	-0.103 ± 0.12
GAAGAGCAAUAUUACGAUCU	-1.21 ± 0.14	-0.955 ± 0.18
CGGAAGCAAUAUUACGAAAG	-0.838 ± 0.12	-0.911 ± 0.19
UGGUAGCAAUAUUACGUCGA	-0.768 ± 0.1	0.144 ± 0.1
UCAAAGCAAUAUUACGUGUA	-1.78 ± 0.07	-0.388 ± 0.066
GGCUAGCAAUAUUACGACUC	0.93 ± 0.14	0.604 ± 0.26
AGGGAGCAAUAUUACGGGCG	-4.23 ± 0.32	-2.35 ± 0.25

Sequence	self-splicing fitness (ln) (30 °C)	self-splicing fitness (ln) (37 °C)
AAAAAGCAAUAUUACGCCCU	0.324 ± 0.1	0.202 ± 0.12
UUUCAGCAAUAUUACGACAU	-1.41 ± 0.015	-0.565 ± 0.033
UAUAAGCAAUAUUACGUGCA	-0.333 ± 0.085	-0.0529 ± 0.1
UGGCAGCAAUAUUACGAUCC	-0.653 ± 0.3	-0.564 ± 0.29
GUGCAGCAAUAUUACGGGAG	-2.01 ± 0.12	-1.44 ± 0.13
GCGAAGCAAUAUUACGGAAU	-3.17 ± 0.13	-1.73 ± 0.13
AUGCAGCAAUAUUACGCACA	-0.62 ± 0.11	0.467 ± 0.13
CAAGAGCAAUAUUACGCCCU	-2.51 ± 0.49	-2.72 ± 0.44
GACAAGCAAUAUUACGCUCA	-0.336 ± 0.056	0.274 ± 0.073
AUCAAGCAAUAUUACGGACA	-0.967 ± 0.075	-0.478 ± 0.093
CCAUAGCAAUAUUACGAGUC	-4.04 ± 0.19	-2.89 ± 0.21
CGUUAGCAAUAUUACGGUAU	-3.23 ± 0.22	-2.2 ± 0.22
UUACAGCAAUAUUACGUGUU	-3.43 ± 0.14	-2.13 ± 0.13
GUAUAGCAAUAUUACGGGCC		-1.55 ± 0.27
AUUCAGCAAUAUUACGUGUC	-4.2 ± 0.22	-2.02 ± 0.2
CUCAAGCAAUAUUACGUAGU	-3.43 ± 0.17	-1.91 ± 0.14
GAACAGCAAUAUUACGGUUU	-3.41 ± 0.13	-1.34 ± 0.14
UAGUAGCAAUAUUACGACAC		-1.67 ± 0.26
CAGGAGCAAUAUUACGUUGA	-3.22 ± 0.37	-3.85 ± 0.42
